Data reported in paper PMC6125206 (Structure (London, England : 1993), 2018).

Target: the molecule itself
Assay: AUC

B1: E. coli cyclopropane fatty acid (CFA) synthase, wild type (from His6-TEV-CFA synthase) (enzyme, UniProt P0A9H7 1-382, looked up)
chain: MSSSCIEEVSVPDDNWYRIANELLSRAGIAINGSAPADIRVKNPDFFKRVLQEGSLGLGESYMDGWWECDRLDMFFSKVLRAGLENQLPHHFKDTLRIAGARLFNLQSKKRAWIVGKEHYDLGNDLFSRMLDPFMQYSCAYWKDADNLESAQQAKLKMICEKLQLKPGMRVLDIGCGWGGLAHYMASNYDVSVVGVTISAEQQKMAQERCEGLDVTILLQDYRDLNDQFDRIVSVGMFEHVGPKNYDTYFAVVDRNLKPEGIFLLHTIGSKKTDLNVDPWINKYIFPNGCLPSVRQIAQSSEPHFVMEDWHNFGADYDTTLMAWYERFLAAWPEIADNYSERFKRMFTYYLNACAGAFRARDIQLWQVVFSRGVENGLRVAR
**Q.** For B1, which “stoichiometry N” value is on record?
**A.** 2
